# Measured values published in patent US20190041402A1 (GOVERNING COUNCIL OF THE UNIVERSITY OF TORONTO, published 2019).
# B1: anti-αKlotho Fab clone 4811 (Fab, V domains shown)
# VH: EVQLVESGGGLVQPGGSLRLSCAASGFNLYYSYMHWVRQAPGKGLEWVASIYSSSSYTSYADSVKGRFTISADTSKNTAYLQMNSLRAEDTAVYYCARSPSWWVSYHSALDYWGQGTLVTVSS
# VL: DIQMTQSPSSLSASVGDRVTITCRASQSVSSAVAWYQQKPGKAPKLLIYSASSLYSGVPSRFSGSRSGTDFTLTISSLQPEDFATYYCQQGYALFTFGQGTKVEIKR
# notes: Fab (also as Fab-phage); FLAG tag on light chain; also called sb180
# B2: sb106 IgG (antibody, V domains shown)
# VH: EVQLVESGGGLVQPGGSLRLSCAASGFNISYYSIHWVRQAPGKGLEWVAYISPSYGYTSYADSVKGRFTISADTSKNTAYLQMNSLRAEDTAVYYCARYYVYASHGWAGYGMDYWGQGTLVTVSS
# VL: DIQMTQSPSSLSASVGDRVTITCRASQSVSSAVAWYQQKPGKAPKLLIYSASSLYSGVPSRFSGSRSGTDFTLTISSLQPEDFATYYCQQAGYSPITFGQGTKVEIKR
# notes: also called sb106 (48) full length IgG
# Experiments:
# [1] = target: T1, extracellular domain (ECD) of human αKlotho, amino acids E34-S981 with C-terminal 6-His tag (R&D Systems … (human, UniProt Q9UEF7 34-981)); assay: SPR, Fab captured by anti-H+L IgG, αKlotho injected at 50 to 6.25 ug/ml, Langmuir fit [continued]
# T1 construct: range 34-981; also called αKlotho (aa34-981); target antigen
# T1 sequence: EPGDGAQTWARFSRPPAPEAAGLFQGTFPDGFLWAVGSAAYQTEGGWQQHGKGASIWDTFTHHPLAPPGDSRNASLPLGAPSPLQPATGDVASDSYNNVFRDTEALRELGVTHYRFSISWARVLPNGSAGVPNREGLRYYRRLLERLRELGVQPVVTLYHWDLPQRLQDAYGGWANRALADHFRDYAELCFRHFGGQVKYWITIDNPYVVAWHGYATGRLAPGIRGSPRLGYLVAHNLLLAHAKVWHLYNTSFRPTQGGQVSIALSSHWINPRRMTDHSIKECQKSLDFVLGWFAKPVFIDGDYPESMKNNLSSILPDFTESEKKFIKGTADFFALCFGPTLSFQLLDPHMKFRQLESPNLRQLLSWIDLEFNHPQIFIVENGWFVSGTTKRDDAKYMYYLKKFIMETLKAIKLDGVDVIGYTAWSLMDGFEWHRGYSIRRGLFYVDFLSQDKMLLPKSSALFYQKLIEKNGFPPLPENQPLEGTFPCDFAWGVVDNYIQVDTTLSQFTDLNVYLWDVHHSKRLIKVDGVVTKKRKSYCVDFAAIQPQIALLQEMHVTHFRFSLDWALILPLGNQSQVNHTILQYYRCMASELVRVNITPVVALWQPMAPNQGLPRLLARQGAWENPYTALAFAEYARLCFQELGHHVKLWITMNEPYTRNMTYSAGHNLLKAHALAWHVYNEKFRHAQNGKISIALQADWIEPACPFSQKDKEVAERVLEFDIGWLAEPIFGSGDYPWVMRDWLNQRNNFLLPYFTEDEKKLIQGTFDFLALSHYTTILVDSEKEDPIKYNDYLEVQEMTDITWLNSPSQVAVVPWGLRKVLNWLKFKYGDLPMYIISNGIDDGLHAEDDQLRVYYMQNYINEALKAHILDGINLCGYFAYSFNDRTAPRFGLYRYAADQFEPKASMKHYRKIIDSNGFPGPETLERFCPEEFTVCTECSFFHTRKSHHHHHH
# Method: (§1) Affinity estimates for each of the antibodies were determined by surface plasmon resonance (SPR). Fabs were immobilized using an anti-H+L antibody and serial dilutions of αKlotho were injected.
# [2] = target: T1, extracellular domain (ECD) of human …; assay: SPR, Fab captured by anti-H+L antibody, αKlotho injected
# Method: as §1
# [3] = target: T2, mouse αKlotho (mouse, UniProt O35082 35-982); assay: SPR (ProteOn XPR36), Fab captured by anti-IgG(H+L), mouse αKlotho injected in serial dilutions, Langmuir fit [continued) C.]
# T2 construct: also called Mu aKL
# T2 sequence (looked up): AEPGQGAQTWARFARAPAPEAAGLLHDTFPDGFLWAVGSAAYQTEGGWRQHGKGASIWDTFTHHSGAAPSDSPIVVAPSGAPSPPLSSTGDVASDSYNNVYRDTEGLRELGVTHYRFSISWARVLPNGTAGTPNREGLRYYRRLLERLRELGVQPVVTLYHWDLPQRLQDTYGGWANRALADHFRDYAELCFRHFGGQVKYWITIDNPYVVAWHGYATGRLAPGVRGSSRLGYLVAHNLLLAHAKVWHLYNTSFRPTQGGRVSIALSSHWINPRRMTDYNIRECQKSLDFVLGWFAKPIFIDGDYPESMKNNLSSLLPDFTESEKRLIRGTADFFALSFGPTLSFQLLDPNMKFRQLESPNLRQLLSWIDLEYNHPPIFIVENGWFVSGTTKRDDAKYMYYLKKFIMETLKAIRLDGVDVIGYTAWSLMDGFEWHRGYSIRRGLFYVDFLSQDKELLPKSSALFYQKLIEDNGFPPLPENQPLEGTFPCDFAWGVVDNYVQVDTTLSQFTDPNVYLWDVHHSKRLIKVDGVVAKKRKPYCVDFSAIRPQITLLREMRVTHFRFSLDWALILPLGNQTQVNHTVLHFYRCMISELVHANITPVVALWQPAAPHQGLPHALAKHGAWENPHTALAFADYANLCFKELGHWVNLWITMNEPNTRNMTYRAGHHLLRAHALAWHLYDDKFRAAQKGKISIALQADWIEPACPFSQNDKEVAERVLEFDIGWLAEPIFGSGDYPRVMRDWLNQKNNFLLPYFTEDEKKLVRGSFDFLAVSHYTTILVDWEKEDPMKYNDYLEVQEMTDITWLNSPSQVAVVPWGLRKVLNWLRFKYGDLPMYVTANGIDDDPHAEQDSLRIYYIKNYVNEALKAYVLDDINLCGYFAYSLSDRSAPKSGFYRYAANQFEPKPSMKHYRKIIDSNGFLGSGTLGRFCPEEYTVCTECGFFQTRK
# Method: (§2) Estimated affinities against human and mouse antigen for select αKlotho Fabs were obtained by surface plasmon resonance on a ProteOn XPR36 (FIG. 17). Fabs were captured using an anti-IgG(H+L) antibody and serial dilutions of αKlotho were injected. Binding curves were fitted to the Langmuir model. (A) Determined Kon, Koff and KD values. (B) and (C) Binding curves for human and mouse antigen respectively.
# [4] = target: T3, soluble human αKlotho (recombinant) (human, UniProt Q9UEF7 34-981); assay: SPR (ProteOn XPR36), Fab captured by anti-IgG(H+L), human αKlotho injected in serial dilutions, Langmuir fit
# T3 construct: also called Hu aKL; recombinant human αKlotho
# T3 sequence (looked up): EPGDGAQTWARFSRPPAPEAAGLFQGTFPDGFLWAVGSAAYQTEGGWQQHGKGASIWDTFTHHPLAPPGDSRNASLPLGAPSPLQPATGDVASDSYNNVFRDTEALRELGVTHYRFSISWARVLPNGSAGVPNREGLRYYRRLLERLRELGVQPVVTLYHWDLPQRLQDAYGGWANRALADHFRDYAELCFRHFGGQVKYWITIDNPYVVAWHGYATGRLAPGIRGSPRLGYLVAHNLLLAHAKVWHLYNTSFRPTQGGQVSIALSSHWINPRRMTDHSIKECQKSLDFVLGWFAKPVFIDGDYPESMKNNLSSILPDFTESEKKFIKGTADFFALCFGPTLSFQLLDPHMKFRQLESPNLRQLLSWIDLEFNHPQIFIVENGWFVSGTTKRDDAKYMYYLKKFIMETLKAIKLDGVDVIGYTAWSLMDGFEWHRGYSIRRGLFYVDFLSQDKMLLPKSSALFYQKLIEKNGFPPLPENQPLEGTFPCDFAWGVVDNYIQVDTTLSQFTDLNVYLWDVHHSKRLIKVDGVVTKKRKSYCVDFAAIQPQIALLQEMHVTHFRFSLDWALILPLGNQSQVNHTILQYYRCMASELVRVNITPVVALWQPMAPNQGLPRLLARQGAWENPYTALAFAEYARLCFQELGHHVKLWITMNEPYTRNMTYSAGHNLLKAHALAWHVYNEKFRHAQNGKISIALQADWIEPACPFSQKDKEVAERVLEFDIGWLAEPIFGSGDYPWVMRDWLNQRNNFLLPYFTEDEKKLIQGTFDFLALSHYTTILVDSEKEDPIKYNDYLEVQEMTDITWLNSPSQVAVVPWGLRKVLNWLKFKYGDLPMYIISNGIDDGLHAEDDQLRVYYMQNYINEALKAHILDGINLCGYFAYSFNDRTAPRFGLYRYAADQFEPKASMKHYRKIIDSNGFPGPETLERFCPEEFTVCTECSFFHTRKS
# Method: as §2
# [5] = target: T2, mouse αKlotho; assay: SPR (ProteOn XPR36), Fab captured by anti-IgG(H+L), mouse αKlotho injected in serial dilutions, Langmuir fit
# Method: as §2
# [6] = target: T3, soluble human αKlotho (recombinant); assay: SPR (ProteOn XPR36), Fab captured by anti-IgG(H+L), human αKlotho injected in serial dilutions, Langmuir fit [continued) B.]
# Method: as §2
# [7] = target: T4, rat αKlotho (endogenous) (rat, UniProt Q9Z2Y9 35-983); assay: immunohistochemistry, unfixed frozen rat parathyroid tissue
# T4 sequence (looked up): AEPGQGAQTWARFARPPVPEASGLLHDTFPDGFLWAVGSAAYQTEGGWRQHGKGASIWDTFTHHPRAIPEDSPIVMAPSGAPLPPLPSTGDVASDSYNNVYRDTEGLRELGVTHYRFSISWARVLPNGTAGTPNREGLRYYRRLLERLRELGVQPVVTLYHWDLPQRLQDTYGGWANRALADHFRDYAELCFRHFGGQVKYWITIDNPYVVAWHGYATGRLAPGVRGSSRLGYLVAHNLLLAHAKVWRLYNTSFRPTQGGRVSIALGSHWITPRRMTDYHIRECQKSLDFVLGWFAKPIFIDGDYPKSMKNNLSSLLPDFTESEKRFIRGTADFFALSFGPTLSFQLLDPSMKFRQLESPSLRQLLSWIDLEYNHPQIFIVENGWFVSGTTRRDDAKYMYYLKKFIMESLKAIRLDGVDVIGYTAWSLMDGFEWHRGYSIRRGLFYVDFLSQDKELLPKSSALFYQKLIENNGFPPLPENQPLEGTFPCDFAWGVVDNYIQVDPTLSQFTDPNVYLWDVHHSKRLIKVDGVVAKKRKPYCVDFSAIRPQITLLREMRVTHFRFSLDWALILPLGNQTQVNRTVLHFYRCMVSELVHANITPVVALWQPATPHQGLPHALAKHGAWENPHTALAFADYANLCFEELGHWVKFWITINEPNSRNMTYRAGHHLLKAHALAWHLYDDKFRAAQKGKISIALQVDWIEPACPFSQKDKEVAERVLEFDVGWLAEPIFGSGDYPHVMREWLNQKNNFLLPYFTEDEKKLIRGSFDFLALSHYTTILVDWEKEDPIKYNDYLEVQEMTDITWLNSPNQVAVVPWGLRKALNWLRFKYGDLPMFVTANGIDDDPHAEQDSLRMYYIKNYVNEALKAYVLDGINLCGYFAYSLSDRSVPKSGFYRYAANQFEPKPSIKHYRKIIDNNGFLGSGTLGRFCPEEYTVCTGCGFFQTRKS
# Method: For labeling, sections were blocked (PBS, 1.5% BSA, 10% goat serum; 40 min) and incubated with the primary antibody sb106 ([…] in blocking solution; 4° C. overnight). After washing (PBS), sections were incubated with the Alexa 546 goat anti-human IgG (1:800 dilution, Invitrogen) for 1 hour at room temperature. After additional washes with PBS, the sections were fixed with 4% paraformaldehyde in PBS, washed with PBS, and mounted and visualized with a Zeiss LSM510 microscope.
# Sb106 was highly reactive against αKlotho under native conditions. Immunoblot signals under denaturing conditions against mouse, rat, and human kidney tissue were weak, but in samples from transgenic mice overexpressing αKlotho [79], sb106-Fab detected a band corresponding to the full-length extracellular domain of αKlotho (FIG. 2A). In cultured cells, sb106-Fab was not able to detect αKlotho in immunoblots under denaturing conditions with lysates from NRK cells expressing native αKlotho but it was able to detect overexpressed antigen in cell lysates from HEK293 cells transfected with αKlotho (FIG. 2B). […] Cells were then incubated with sb106-Fab (5 μg/ml in 1% BSA in PBS) for 1 hr. […]
Binder,Kd [1] [nM],koff [1] [s⁻¹],kon [1] [M⁻¹ s⁻¹],Kd [2] [nM],Kd [3] [nM],koff [3] [s⁻¹],kon [3] [M⁻¹ s⁻¹],Kd [4] [nM],koff [4] [s⁻¹],kon [4] [M⁻¹ s⁻¹],Kd [5] [nM],koff [5] [s⁻¹],kon [5] [M⁻¹ s⁻¹],Kd [6] [nM],koff [6] [s⁻¹],kon [6] [M⁻¹ s⁻¹],binding result [7]
B1,1.13,0.000609,537000,2.3,10.3,0.00276,268000,1.48,0.000516,349000,19.9,0.00545,273000,1.48,0.000516,349000,
B2,,,,,,,,,,,,,,,,,binds
